Assay [1] addresses Chk1 (UniProt O14757). In words: biotin-peptide streptavidin pull-down from lysate. The note with it: reference: NC peptide with pT916 and pS945, untreated; sites T916,S945.
Assay [2] deals with Chk1 (UniProt O14757). Nature of the assay: biotin-peptide streptavidin pull-down, purified Chk1. The note with it: reference: NC peptide with pT916 and pS945, untreated; sites T916,S945.

The source of these data is article PMC6996922.

As for “Claspin NC peptide, 901-955 (from UniProt Q9HAW4) NC peptide pretreated with λ-phosphatase”, the “binding against the reference” value in the assay with Chk1 [1] and in the assay with Chk1 [2] was “lost” throughout.
